Source: patent US20250215104A1 (WALDEN BIOSCIENCES, published 2025)
Changes are numbered by the printed parent chain.

B1: suPAR_DB02_E10 (scFv, V domains shown)
VH: QVQLVQSGAEVKKPGASVKVSCKASGYTFTNYFMHWVRQAPGQGLEWMGWIDHENGNTIYDQKFQGRVTMTRDTSTSTVYMELSSLRSEDTAVYYCARGYDVDWFVYWGQGTLVTVSS
VL: DIQMTQSPSSLSASVGDRVTITCSARSSVSYMYWYQQKPGKAPKLLIYRTSNLASGVPSRFSGSGSGTDFTLTISSLQPEDFATYYCQQYHSYPPTFGGGTKVEIK
notes: scFv clone from phage display
B2: suPAR_DB02_E12 (scFv, V domains shown)
VH: B1 VH with N31S, Y32N, F33Y
VL: B1 VL with R26S, S27Q
notes: scFv clone from phage display
B3: suPAR_DB02_F02 (scFv, V domains shown)
VH: B1 VH with N31D, F33Y, H53P
VL: B1 VL with A54Q
notes: scFv clone from phage display
B4: suPAR_DB02_F03 (scFv, V domains shown)
VH: B1 VH with N31S, F33Y, M34V, H53P, N55G, N57S
VL: B1 VL with N52S, A54Q
notes: scFv clone from phage display
B5: suPAR_DB02_F05 (scFv, V domains shown)
VH: B1 VH with N31G, Y32N, F33Y, H35Q
VL: B1 VL
notes: scFv clone from phage display
B6: suPAR_DB02_F10 (scFv, V domains shown)
VH: B1 VH with N31T, F33Y, H53P, N55G, I59S
VL: B1 VL
notes: scFv clone from phage display
B7: suPAR_DB02_G01 (scFv, V domains shown)
VH: B1 VH with Y27H, N31D, F33Y, D52S, H53P, E54N, N55S, N57G, I59N, D61A
VL: B1 VL
notes: scFv clone from phage display
B8: suPAR_DB02_G02 (scFv, V domains shown)
VH: B1 VH with N31R, F33Y, N57S, D61A
VL: B1 VL with N52S, A54Q
notes: scFv clone from phage display
B9: suPAR_DB02_G03 (scFv, V domains shown)
VH: B1 VH with N31S, F33Y, H53P
VL: B1 VL with R26S, S27Q
notes: scFv clone from phage display
B10: suPAR_DB02_G04 (scFv, V domains shown)
VH: B1 VH with Y27H, N31G, F33Y, M34I
VL: B1 VL
notes: scFv clone from phage display
B11: suPAR_DB02_G06 (scFv, V domains shown)
VH: B1 VH with F33Y, N55G, N57S, D61A
VL: B1 VL with V29I
notes: scFv clone from phage display
B12: suPAR_DB02_G07 (scFv, V domains shown)
VH: B1 VH with N31S, F33Y, H53P, N57S
VL: B1 VL with R26S, S27Q
notes: scFv clone from phage display
B13: suPAR_DB02_G08 (scFv, V domains shown)
VH: B1 VH with Y27D, N31S, F33Y, N55G, I59S, D61E
VL: B1 VL
notes: scFv clone from phage display
B14: suPAR_DB02_G12 (scFv, V domains shown)
VH: B1 VH with Y27F, T28N, F29I, T30K, N31D, F33Y, M34I, H53P, N57S
VL: B1 VL with R26S, N52S, A54Q
notes: scFv clone from phage display
B15: suPAR_DB02_H01 (scFv, V domains shown)
VH: B1 VH with N31G, Y32Q, F33Y, M34I, E54S, N55G, N57S, R98G
VL: B1 VL with N52S
notes: scFv clone from phage display
B16: suPAR_DB02_H03 (scFv, V domains shown)
VH: B1 VH with N31T, F33Y, H53P, N55G, N57S
VL: B1 VL
notes: scFv clone from phage display
B17: suPAR_DB02_H05 (scFv, V domains shown)
VH: B1 VH with T28F, N31A, F33Y, H53P
VL: B1 VL
notes: scFv clone from phage display
B18: suPAR_DB06_F07 (scFv, V domains shown)
VH: B1 VH with F33Y
VL: B1 VL
B19: suPAR_DB06_B10 (scFv, V domains shown)
VH: B1 VH with Y27D, F29L, F33Y, N57S, D61A
VL: B1 VL with A54Q, S55T
B20: suPAR_DB06_B11 (scFv, V domains shown)
VH: B1 VH with N31S, Y32N, F33Y, M34I, R98E
VL: B1 VL with S24R, S27Q
B21: suPAR_DB06_B12 (scFv, V domains shown)
VH: B1 VH with F33Y, H53P, N55G
VL: B1 VL
B22: suPAR_DB06_C01 (scFv, V domains shown)
VH: B1 VH with N31G, F33Y, H53P, E54S
VL: B1 VL with S27Q, V29I
B23: suPAR_DB06_C03 (scFv, V domains shown)
VH: B1 VH with N31S, F33Y, H53P, E54N, N55S, N57G, I59N, D61A
VL: B1 VL
B24: suPAR_DB06_C06 (scFv, V domains shown)
VH: B1 VH with T30S, F33Y, N55G, I59S, D61A
VL: B1 VL
B25: suPAR_DB06_C07 (scFv, V domains shown)
VH: B1 VH with F33Y, H53P, E54N, N55G, N57G, I59Q, D61A
VL: B1 VL
B26: suPAR_DB06_C09 (scFv, V domains shown)
VH: B1 VH with N31S, F33Y, H53P
VL: B1 VL with S24R
B27: suPAR_DB06_C10 (scFv, V domains shown)
VH: B1 VH with T30S, N31A, F33Y, H53P, E54S
VL: B1 VL
B28: suPAR_DB06_C11 (scFv, V domains shown)
VH: B1 VH with F33Y
VL: B1 VL with S27Q
B29: suPAR_DB06_C12 (scFv, V domains shown)
VH: B1 VH with T28S, N31A, Y32N, F33Y, M34I, R98N
VL: B1 VL
B30: suPAR_DB06_D02 (scFv, V domains shown)
VH: B1 VH with N31S, Y32N, F33Y
VL: B1 VL with R26S
B31: suPAR_DB06_D05 (scFv, V domains shown)
VH: B1 VH with Y27G, N31G, F33Y, H53P, E54S, N55G
VL: B1 VL with S27Q
B32: suPAR_DB06_D06 (scFv, V domains shown)
VH: B1 VH with F33Y, H53P, D61A
VL: B1 VL
B33: suPAR_DB06_D07 (scFv, V domains shown)
VH: B1 VH with F33Y, N55G, D61A
VL: B1 VL
B34: suPAR_DB06_D08 (scFv, V domains shown)
VH: B1 VH with F33Y, H53P, N55G, I59S
VL: B1 VL
B35: suPAR_DB06_D09 (scFv, V domains shown)
VH: B1 VH with Y27G, N31S, F33Y, N57S, D61A
VL: B1 VL with R26S
B36: suPAR_DB06_D10 (scFv, V domains shown)
VH: B1 VH with N31S, F33Y, H53P, D61A
VL: B1 VL
B37: suPAR_DB06_D11 (scFv, V domains shown)
VH: QVQLVQSGAEVKKPGASVKVSCKASGYTFANYYVHWVRQAPGQGLEWVGMIDPGGGTTNYAQKFQGRVTMTRDTSTSTVYMELSSLRSEDTAVYYCARGYDVDWFVYWGQGTLVTVSS
VL: B1 VL with S24R, S27Q
B38: suPAR_DB06_D12 (scFv, V domains shown)
VH: B1 VH with Y27G, T30S, N31S, F33Y, H53P, D61A
VL: B1 VL with S27Q, N52S
B39: suPAR_DB06_E02 (scFv, V domains shown)
VH: B1 VH with T28S, F33Y
VL: B1 VL
B40: suPAR_DB06_E03 (scFv, V domains shown)
VH: B1 VH with Y27F, T28N, F29I, T30K, N31D, F33Y, M34I, H53P, I59S
VL: B1 VL
B41: suPAR_DB06_E04 (scFv, V domains shown)
VH: B1 VH with Y27D, T30S, N31S, F33Y, V102M
VL: B1 VL with S24R, A54Q

Target: T1, cynomolgus soluble urokinase plasminogen activator receptor (suPAR) (cynomolgus, UniProt Q9GK78 23-303, limits assumed)
T1 construct: Column head says only 'cynomologus'; also called cynomolgus suPAR; cynomolgus uPAR
Test: BLI (Octet) off-rate screen of scFv clones
Target sequence in this assay (Q9GK78 23-303 limits assumed): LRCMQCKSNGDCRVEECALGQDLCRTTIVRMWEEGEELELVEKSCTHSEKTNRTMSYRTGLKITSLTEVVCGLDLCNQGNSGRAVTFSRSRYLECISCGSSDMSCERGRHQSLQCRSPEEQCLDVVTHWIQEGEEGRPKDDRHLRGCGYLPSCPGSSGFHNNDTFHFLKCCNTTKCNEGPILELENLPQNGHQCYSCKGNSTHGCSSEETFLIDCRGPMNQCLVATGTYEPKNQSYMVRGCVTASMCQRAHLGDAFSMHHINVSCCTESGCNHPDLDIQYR

B1 and B2 are within 1.5-fold of each other in koff: 0.000189 s⁻¹ for the first, 0.000215 s⁻¹ for the second.

B3 and B4 are within 1.5-fold of each other in koff: 0.00048 s⁻¹ for the first, 0.000492 s⁻¹ for the second.

Going from B5 to B6, the koff rises from 0.000161 s⁻¹ to 0.000375 s⁻¹ (2.3-fold).

First: B7
Second: B8
The koff of the first is 2.4-fold lower: 5.19e-05 s⁻¹ for the first, 0.000125 s⁻¹ for the second.

Compared with B9, B10 is 2.5-fold lower in koff: 0.00025 s⁻¹ for the first, 9.86e-05 s⁻¹ for the second.

First: B11
Second: B12
The koff of the first is 2.2-fold lower: 0.000132 s⁻¹ for the first, 0.000286 s⁻¹ for the second.

First: B13
Second: B14
The koff of the first is 5.7-fold lower: 0.000103 s⁻¹ for the first, 0.000584 s⁻¹ for the second.

Compared with B15, B16 is 2.4-fold higher in koff: 0.000218 s⁻¹ for the first, 0.000524 s⁻¹ for the second.

B17 showed a koff of 0.00021 s⁻¹.

Target: T2, cynomolgus soluble urokinase plasminogen activator receptor (suPAR) (cynomolgus, UniProt Q9GK78 23-303, limits assumed)
T2 construct: Target antigen of the scFv off-rate screen; also called cynomolgus suPAR; cynomolgus uPAR
Test: BLI (Octet) off-rate screen of scFv clones
Target sequence in this assay (Q9GK78 23-303 limits assumed): as above

B18 and B19 are within 1.5-fold of each other in koff: 0.000455 s⁻¹ for the first, 0.000587 s⁻¹ for the second.

Compared with B20, B21 is 2.3-fold higher in koff: 0.000128 s⁻¹ for the first, 0.000293 s⁻¹ for the second.

Compared with B22, B23 is 22-fold higher in koff: 1.49e-05 s⁻¹ for the first, 0.000332 s⁻¹ for the second.

Going from B24 to B25, the koff rises from 0.00025 s⁻¹ to 0.000387 s⁻¹ (1.5-fold).

B26 and B27 are within 1.5-fold of each other in koff: 0.000566 s⁻¹ for the first, 0.00048 s⁻¹ for the second.

Compared with B28, B29 is 8.4-fold lower in koff: 0.000631 s⁻¹ for the first, 7.52e-05 s⁻¹ for the second.

B30 and B31 are within 1.5-fold of each other in koff: 0.00023 s⁻¹ for the first, 0.000222 s⁻¹ for the second.

First: B32
Second: B33
The koff of the first is 2.2-fold lower: 0.000261 s⁻¹ for the first, 0.000565 s⁻¹ for the second.

First: B34
Second: B35
The koff of the first is 2.1-fold higher: 0.000715 s⁻¹ for the first, 0.000341 s⁻¹ for the second.

B36 and B37 are within 1.5-fold of each other in koff: 0.000365 s⁻¹ for the first, 0.000439 s⁻¹ for the second.

Going from B38 to B39, the koff rises from 0.000189 s⁻¹ to 0.000589 s⁻¹ (3.1-fold).

B40 and B41 are within 1.5-fold of each other in koff: 0.00037 s⁻¹ for the first, 0.000388 s⁻¹ for the second.

Target: T3, human soluble urokinase plasminogen activator receptor (suPAR) (human, UniProt Q03405 23-303, limits assumed)
T3 construct: Target antigen of the scFv off-rate screen; also called hsuPAR; human suPAR
Test: BLI (Octet) off-rate screen of scFv clones
T3 sequence (Q03405 23-303 limits assumed): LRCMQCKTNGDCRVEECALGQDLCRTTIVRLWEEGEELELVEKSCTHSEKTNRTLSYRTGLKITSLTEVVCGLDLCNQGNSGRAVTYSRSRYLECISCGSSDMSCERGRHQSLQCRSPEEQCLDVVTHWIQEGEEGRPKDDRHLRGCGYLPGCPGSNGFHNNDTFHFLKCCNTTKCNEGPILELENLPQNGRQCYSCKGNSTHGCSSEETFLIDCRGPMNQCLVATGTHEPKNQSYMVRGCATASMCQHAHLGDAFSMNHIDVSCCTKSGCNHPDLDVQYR

First: B18
Second: B19
The koff of the first is 2.9-fold higher: 0.00402 s⁻¹ for the first, 0.00141 s⁻¹ for the second.

Compared with B20, B21 is 2.4-fold lower in koff: 0.00489 s⁻¹ for the first, 0.00203 s⁻¹ for the second.

B22 and B23 are within 1.5-fold of each other in koff: 0.00233 s⁻¹ for the first, 0.00347 s⁻¹ for the second.

Compared with B24, B25 is 1.6-fold higher in koff: 0.00311 s⁻¹ for the first, 0.00495 s⁻¹ for the second.

Going from B26 to B27, the koff rises from 0.00382 s⁻¹ to 0.00599 s⁻¹ (1.6-fold).

Going from B28 to B29, the koff rises from 0.00201 s⁻¹ to 0.00484 s⁻¹ (2.4-fold).

B30 and B31 are within 1.5-fold of each other in koff: 0.00422 s⁻¹ for the first, 0.00558 s⁻¹ for the second.

First: B32
Second: B33
The koff of the first is 1.7-fold higher: 0.00406 s⁻¹ for the first, 0.00244 s⁻¹ for the second.

B34 and B35 are within 1.5-fold of each other in koff: 0.00166 s⁻¹ for the first, 0.00149 s⁻¹ for the second.

Going from B36 to B37, the koff falls from 0.00425 s⁻¹ to 0.0021 s⁻¹ (2-fold).

Compared with B38, B39 is 2.7-fold lower in koff: 0.00515 s⁻¹ for the first, 0.00189 s⁻¹ for the second.

Compared with B40, B41 is 2.7-fold higher in koff: 0.00201 s⁻¹ for the first, 0.00541 s⁻¹ for the second.

Target: T4, human soluble urokinase plasminogen activator receptor (suPAR) (human, UniProt Q03405 23-303, limits assumed)
T4 construct: Column head says only 'human'; also called human suPAR; hsuPAR
Test: BLI (Octet) off-rate screen of scFv clones
T4 sequence (Q03405 23-303 limits assumed): as above

B1 and B2 are within 1.5-fold of each other in koff: 0.00552 s⁻¹ for the first, 0.00675 s⁻¹ for the second.

Going from B3 to B4, the koff rises from 0.00179 s⁻¹ to 0.00504 s⁻¹ (2.8-fold).

Compared with B5, B6 is 5.8-fold lower in koff: 0.00613 s⁻¹ for the first, 0.00106 s⁻¹ for the second.

Going from B7 to B8, the koff falls from 0.00438 s⁻¹ to 0.00242 s⁻¹ (1.8-fold).

B9 and B10 are within 1.5-fold of each other in koff: 0.00346 s⁻¹ for the first, 0.00448 s⁻¹ for the second.

Compared with B11, B12 is 2.7-fold higher in koff: 0.00137 s⁻¹ for the first, 0.00367 s⁻¹ for the second.

B13 and B14 are within 1.5-fold of each other in koff: 0.00395 s⁻¹ for the first, 0.00371 s⁻¹ for the second.

Compared with B15, B16 is 1.9-fold higher in koff: 0.00315 s⁻¹ for the first, 0.00594 s⁻¹ for the second.

With B17 the koff was 0.00442 s⁻¹.
